Laboratory results as given in patent US20250320281A1.

Key:
Test in all cases: cell-based or functional assay
[1] = molecular target: HIV-1 92UG024 envelope glycoprotein (Env) on pseudovirus (HIV-1 isolate 92UG024 (clade D))
[2] = molecular target: HIV-1 94UG103 envelope glycoprotein (Env) on pseudovirus (HIV-1 isolate 94UG103 (clade A))
[3] = molecular target: HIV-1 APV6 envelope glycoprotein (Env) on pseudovirus (HIV-1 isolate APV6 (clade B))
[4] = molecular target: HIV-1 MGRM-C-026 envelope glycoprotein (Env) on pseudovirus (HIV-1 isolate MGRM-C-026 (clade C))
[5] = molecular target: HIV-1 MGRM-D-018 envelope glycoprotein (Env) on pseudovirus (HIV-1 isolate MGRM-D-018 (clade D))
[6] = molecular target: HIV-1 Env of isolate CAP45 (clade C pseudovirus) (HIV-1)
[7] = molecular target: HIV-1 Env of isolate PVO.4 (clade B pseudovirus) (HIV-1)
[8] = molecular target: HIV-1 Env of isolate TR0.11 (clade B pseudovirus) (HIV-1)
[9] = molecular target: HIV-1 Env of isolate ZM233 (clade C pseudovirus) (HIV-1)
[10] = molecular target: HIV-1 Env of isolate ZM249 (clade C pseudovirus) (HIV-1)
[11] = molecular target: HIV-1 Env of isolate MG RM-D-024 (HIV-1)
[12] = molecular target: HIV-1 Env of isolate MG RM-D-026 (HIV-1)
[13] = molecular target: HIV-1 Env of isolate MG RM-D-029 (HIV-1)
[14] = molecular target: HIV-1 Env of isolate MGRM-F1-006 (HIV-1)
[15] = molecular target: HIV-1 Env of pseudovirus MGRM-AE-008 (subtype AE) (HIV-1)
[16] = molecular target: HIV-1 Env of pseudovirus MGRM-AG-002 (subtype AG) (HIV-1)
[17] = molecular target: HIV-1 Env of pseudovirus MGRM-AG-003 (subtype AG) (HIV-1)
[18] = molecular target: HIV-1 Env of pseudovirus MGRM-AG-005 (subtype AG) (HIV-1)
[19] = molecular target: HIV-1 Env of pseudovirus MGRM-AG-011 (subtype AG) (HIV-1)
[20] = molecular target: HIV-1 92UG005 Env (HIV-1)
[21] = molecular target: HIV-1 93IN905 Env (HIV-1)
HIV-1 JRFL Env (HIV-1) = molecular target: HIV-1 JRFL Env (HIV-1)
[22] = molecular target: HIV-1 Env of isolate APV13 (HIV-1)
[23] = molecular target: HIV-1 Env of isolate MG RM-D-021 (clade D), on pseudovirus (HIV-1)
[24] = molecular target: HIV-1 Env of isolate MG RM-D-029 (clade D), on pseudovirus (HIV-1)
[25] = molecular target: HIV-1 Env of isolate MGRM-Chronic-B-001 (HIV-1)
[26] = molecular target: HIV-1 Env of isolate MGRM-Chronic-B-003 (HIV-1)
[27] = molecular target: HIV-1 Env of isolate MGRM-Chronic-B-020 (HIV-1)
[28] = molecular target: HIV-1 Env of isolate MGRM-F1-008 (clade F), on pseudovirus (HIV-1)
[29] = molecular target: HIV-1 Env of isolate MGRM-F1-021 (clade F pseudovirus) (HIV-1)
[30] = molecular target: HIV-1 Env of pseudovirus MGRM-A-001 (subtype A) (HIV-1)
[31] = molecular target: HIV-1 Env of pseudovirus MGRM-A-002 (subtype A) (HIV-1)
[32] = molecular target: HIV-1 92BR020 Env (pseudovirus) (HIV-1 isolate 92BR020 (clade B))
[33] = molecular target: HIV-1 APV6 Env (pseudovirus) (HIV-1 isolate APV6 (clade B))
[34] = molecular target: HIV-1 MGRM-C-027 Env (pseudovirus) (HIV-1 isolate MGRM-C-027 (clade C))
[35] = molecular target: HIV-1 NL43 Env (pseudovirus) (HIV-1 isolate NL43 (clade B))
[36] = molecular target: HIV-1 Env of isolate 92BR020 (pseudovirus) (HIV-1)
[37] = molecular target: aMLV envelope protein on pseudovirus (negative control virus) (aMLV)

1443_C16 (PG16) (TCN-116) (antibody), sequence (VH): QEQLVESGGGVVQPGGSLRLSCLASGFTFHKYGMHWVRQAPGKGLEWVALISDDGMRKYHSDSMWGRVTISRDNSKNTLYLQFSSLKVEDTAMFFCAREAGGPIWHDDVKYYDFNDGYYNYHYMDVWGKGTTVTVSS
1443_C16 (PG16) (TCN-116) (antibody), sequence (VL): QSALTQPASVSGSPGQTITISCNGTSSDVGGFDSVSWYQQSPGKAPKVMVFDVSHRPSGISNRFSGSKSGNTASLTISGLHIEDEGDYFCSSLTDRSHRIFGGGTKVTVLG

**Q.** Which neutralization IC50 [1] does the source give for 1496_C09 (PG9) (TCN-109) (antibody) here?
**A.** 1.91 µg/mL

**Q.** And the neutralization IC50 [2]?
**A.** 0.31 µg/mL

**Q.** What about the neutralization IC80 [2] of the same substance?
**A.** 1.95 µg/mL

**Q.** What about the neutralization IC90 [2] of the same substance?
**A.** 5.54 µg/mL

**Q.** And the neutralization IC50 [3]?
**A.** 0.214 µg/mL

**Q.** And the neutralization IC80 [3]?
**A.** 1.13 µg/mL

**Q.** And the neutralization IC90 [3]?
**A.** 3.21 µg/mL

**Q.** What about the neutralization IC95 [3] of the same substance?
**A.** 9.65 µg/mL

**Q.** And the neutralization IC50 [4]?
**A.** 0.113 µg/mL

**Q.** What about the neutralization IC50 [5] of the same substance?
**A.** 0.0444 µg/mL

**Q.** What about the neutralization IC80 [5] of the same substance?
**A.** 0.18 µg/mL

**Q.** And the neutralization IC90 [5]?
**A.** 0.43 µg/mL

**Q.** What about the neutralization IC95 [5] of the same substance?
**A.** 1.05 µg/mL

**Q.** What does the source list for 1443_C16 (PG16) (TCN-116) (antibody)?
**A.** IC50 (neutralization, TZM-bl pseudovirus assay) [6]: < 0.01 µg/mL; IC50 (neutralization, TZM-bl pseudovirus assay) [7]: 12.3 µg/mL; IC50 (neutralization, TZM-bl pseudovirus assay) [8]: 3.61 µg/mL; IC50 (neutralization, TZM-bl pseudovirus assay) [9]: < 0.01 µg/mL; IC50 (neutralization, TZM-bl pseudovirus assay) [10]: < 0.01 µg/mL

**Q.** Which IC50 [11] does the source give for VRC01 (antibody) here?
**A.** 0.366 µg/mL

**Q.** And the IC50 [12]?
**A.** 0.435 µg/mL

**Q.** And the IC50 [13]?
**A.** 3.22 µg/mL

**Q.** And the IC50 [14]?
**A.** 2.86 µg/mL

**Q.** What about the IC50, pseudovirus neutralization [15] of the same substance?
**A.** 1.72 µg/mL

**Q.** And the IC50, pseudovirus neutralization [16]?
**A.** 0.95 µg/mL

**Q.** What about the IC50, pseudovirus neutralization [17] of the same substance?
**A.** 0.043 µg/mL

**Q.** And the IC50, pseudovirus neutralization [18]?
**A.** 0.091 µg/mL

**Q.** And the IC50, pseudovirus neutralization [19]?
**A.** 0.084 µg/mL

**Q.** With 4877_D15 (PGT-122) (antibody) as the substance, how does the Neutralization by PGT-122, IC50 [20] read?
**A.** > 10 µg/mL

**Q.** What about the Neutralization by PGT-122, IC80 [20] of the same substance?
**A.** > 10 µg/mL

**Q.** And the Neutralization by PGT-122, IC90 [20]?
**A.** > 10 µg/mL

**Q.** What about the Neutralization by PGT-122, IC95 [20] of the same substance?
**A.** > 10 µg/mL

**Q.** And the Neutralization by PGT-122, IC50 [21]?
**A.** 0.0138 µg/mL

**Q.** What about the Neutralization by PGT-122, IC80 [21] of the same substance?
**A.** 0.0505 µg/mL

**Q.** And the Neutralization by PGT-122, IC90 [21]?
**A.** 0.108 µg/mL

**Q.** What about the Neutralization by PGT-122, IC95 [21] of the same substance?
**A.** 0.217 µg/mL

**Q.** What about the Neutralization by PGT-122, IC50 (HIV-1 JRFL Env (HIV-1)) of the same substance?
**A.** 0.0471 µg/mL

**Q.** What about the Neutralization by PGT-122, IC80 (HIV-1 JRFL Env (HIV-1)) of the same substance?
**A.** 0.166 µg/mL

**Q.** What about the Neutralization by PGT-122, IC90 (HIV-1 JRFL Env (HIV-1)) of the same substance?
**A.** 0.342 µg/mL

**Q.** What about the Neutralization by PGT-122, IC95 (HIV-1 JRFL Env (HIV-1)) of the same substance?
**A.** 0.659 µg/mL

**Q.** For PGV04 (antibody), which IC50 (µg/mL), pseudovirus neutralization [22] is on record?
**A.** 1.23 µg/mL

**Q.** What about the IC50 (µg/mL), pseudovirus neutralization [23] of the same substance?
**A.** > 50 µg/mL

**Q.** What about the IC50 (µg/mL), pseudovirus neutralization [24] of the same substance?
**A.** 1.56 µg/mL

**Q.** And the IC50 (µg/mL), pseudovirus neutralization [25]?
**A.** 0.048 µg/mL

**Q.** And the IC50 (µg/mL), pseudovirus neutralization [26]?
**A.** 0.258 µg/mL

**Q.** What about the IC50 (µg/mL), pseudovirus neutralization [27] of the same substance?
**A.** 1.26 µg/mL

**Q.** And the IC50 (µg/mL), pseudovirus neutralization [28]?
**A.** 1.03 µg/mL

**Q.** What about the IC50 (µg/mL), pseudovirus neutralization [29] of the same substance?
**A.** 0.031 µg/mL

**Q.** What about the IC50, pseudovirus neutralization [30] of the same substance?
**A.** 6.78 µg/mL

**Q.** And the IC50, pseudovirus neutralization [31]?
**A.** 0.093 µg/mL

**Q.** How did the Neutralization by PGT-125, IC50 [32] turn out when 5123_A06 (PGT-125) (antibody) was run?
**A.** 0.0214 µg/mL

**Q.** What about the Neutralization by PGT-125, IC80 [32] of the same substance?
**A.** 0.0738 µg/mL

**Q.** What about the Neutralization by PGT-125, IC90 [32] of the same substance?
**A.** 0.156 µg/mL

**Q.** What about the Neutralization by PGT-125, IC95 [32] of the same substance?
**A.** 0.323 µg/mL

**Q.** What about the Neutralization by PGT-125, IC50 [33] of the same substance?
**A.** 0.0359 µg/mL

**Q.** What about the Neutralization by PGT-125, IC80 [33] of the same substance?
**A.** 0.133 µg/mL

**Q.** What about the Neutralization by PGT-125, IC90 [33] of the same substance?
**A.** 0.288 µg/mL

**Q.** And the Neutralization by PGT-125, IC95 [33]?
**A.** 0.597 µg/mL

**Q.** And the Neutralization by PGT-125, IC50 [34]?
**A.** > 10 µg/mL

**Q.** What about the Neutralization by PGT-125, IC80 [34] of the same substance?
**A.** > 10 µg/mL

**Q.** What about the Neutralization by PGT-125, IC90 [34] of the same substance?
**A.** > 10 µg/mL

**Q.** And the Neutralization by PGT-125, IC95 [34]?
**A.** > 10 µg/mL

**Q.** And the Neutralization by PGT-125, IC50 [35]?
**A.** > 10 µg/mL

**Q.** And the Neutralization by PGT-125, IC80 [35]?
**A.** > 10 µg/mL

**Q.** And the Neutralization by PGT-125, IC90 [35]?
**A.** > 10 µg/mL

**Q.** What about the Neutralization by PGT-125, IC95 [35] of the same substance?
**A.** > 10 µg/mL

**Q.** Which results are given for 4858_P08 (PGT-123) (antibody)?
**A.** Primary Neutralization Index (B cell culture supernatant) [36]: 2.8; neutralization IC50 [37]: > 10 µg/mL; neutralization IC80 [37]: > 10 µg/mL; neutralization IC90 [37]: > 10 µg/mL; neutralization IC95 [37]: > 10 µg/mL
